Measured values: US20250073311A1, “DOSAGE REGIME” (ZEALAND PHARMA A/S, priority 2021, published 2025)
One block for each binder: values may come before it. Numbered stars: 1 amine (or outer) side, 2 acyl side, 3 side chain; on linkers, the order of the positions; unused ones are H or OH. Square brackets hold non-standard residues; d marks the D form. Side chains are listed from the residue outwards. * marks the point of attachment. C18 diacid = O=C(O)CCCCCCCCCCCCCCCCC(=O)*; γGlu = O=C(O)[C@H](CCC(=O)[*:2])N[*:1]; Palmitoyl = CCCCCCCCCCCCCCCC(=O)*; Aib = CC(C)(N)C(=O)O; βAla = NCCC(=O)O

What was measured:
[1] = biological target: human glucagon-like peptide 1 receptor (GLP-1R) (human, UniProt P43220); test: cell-based or functional assay
[2] = biological target: T1, human GLP-2 receptor (hGLP2-R) (human, UniProt O95838); test: cell-based or functional assay
T1 sequence: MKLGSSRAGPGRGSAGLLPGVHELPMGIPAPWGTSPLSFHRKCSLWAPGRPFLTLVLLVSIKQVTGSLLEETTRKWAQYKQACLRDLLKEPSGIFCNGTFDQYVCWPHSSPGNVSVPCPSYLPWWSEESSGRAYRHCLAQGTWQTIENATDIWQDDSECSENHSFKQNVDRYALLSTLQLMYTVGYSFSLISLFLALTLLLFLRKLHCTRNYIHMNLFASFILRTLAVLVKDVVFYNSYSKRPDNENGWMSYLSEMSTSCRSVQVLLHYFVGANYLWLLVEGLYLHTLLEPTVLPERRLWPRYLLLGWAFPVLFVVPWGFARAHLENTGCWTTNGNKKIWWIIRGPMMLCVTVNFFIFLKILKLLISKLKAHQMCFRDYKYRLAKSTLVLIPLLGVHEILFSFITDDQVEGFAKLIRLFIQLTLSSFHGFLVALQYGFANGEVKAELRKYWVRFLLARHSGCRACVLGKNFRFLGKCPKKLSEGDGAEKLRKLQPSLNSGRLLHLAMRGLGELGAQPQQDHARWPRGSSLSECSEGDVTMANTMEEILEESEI

B4: Compound 28 (peptide)
peptide: H-H[Aib]EGSFTSELATILDK([γGlu-C18 diacid])QAARDFIAWLILHKITD-OH
SMILES: CC[C@H](C)[C@H](NC(=O)[C@H](Cc1ccccc1)NC(=O)[C@H](CC(=O)O)NC(=O)[C@H](CCCNC(=N)N)NC(=O)[C@H](C)NC(=O)[C@H](C)NC(=O)[C@H](CCC(N)=O)NC(=O)[C@H](CCCCNC(=O)CC[C@H](NC(=O)CCCCCCCCCCCCCCCCC(=O)O)C(=O)O)NC(=O)[C@H](CC(=O)O)NC(=O)[C@H](CC(C)C)NC(=O)[C@@H](NC(=O)[C@@H](NC(=O)[C@H](C)NC(=O)[C@H](CC(C)C)NC(=O)[C@H](CCC(=O)O)NC(=O)[C@H](CO)NC(=O)[C@@H](NC(=O)[C@H](Cc1ccccc1)NC(=O)[C@H](CO)NC(=O)CNC(=O)[C@H](CCC(=O)O)NC(=O)C(C)(C)NC(=O)[C@@H](N)Cc1c[nH]cn1)[C@@H](C)O)[C@@H](C)O)[C@@H](C)CC)C(=O)N[C@@H](C)C(=O)N[C@@H](Cc1c[nH]c2ccccc12)C(=O)N[C@@H](CC(C)C)C(=O)N[C@H](C(=O)N[C@@H](CC(C)C)C(=O)N[C@@H](Cc1c[nH]cn1)C(=O)N[C@@H](CCCCN)C(=O)N[C@H](C(=O)N[C@H](C(=O)N[C@@H](CC(=O)O)C(=O)O)[C@@H](C)O)[C@@H](C)CC)[C@@H](C)CC
EC50 GLP-1 (nM), cAMP AlphaScreen [1]: 0.36 nM
EC50 GLP-2 (nM), cAMP AlphaScreen [2]: 0.51 nM

B5: Compound 27 (peptide)
peptide: H-H[Aib]EGSFTSELATILDK([γGlu-C18 diacid])QAARDFIAWLIYHKITD-OH
SMILES: CC[C@H](C)[C@H](NC(=O)[C@H](Cc1ccccc1)NC(=O)[C@H](CC(=O)O)NC(=O)[C@H](CCCNC(=N)N)NC(=O)[C@H](C)NC(=O)[C@H](C)NC(=O)[C@H](CCC(N)=O)NC(=O)[C@H](CCCCNC(=O)CC[C@H](NC(=O)CCCCCCCCCCCCCCCCC(=O)O)C(=O)O)NC(=O)[C@H](CC(=O)O)NC(=O)[C@H](CC(C)C)NC(=O)[C@@H](NC(=O)[C@@H](NC(=O)[C@H](C)NC(=O)[C@H](CC(C)C)NC(=O)[C@H](CCC(=O)O)NC(=O)[C@H](CO)NC(=O)[C@@H](NC(=O)[C@H](Cc1ccccc1)NC(=O)[C@H](CO)NC(=O)CNC(=O)[C@H](CCC(=O)O)NC(=O)C(C)(C)NC(=O)[C@@H](N)Cc1c[nH]cn1)[C@@H](C)O)[C@@H](C)O)[C@@H](C)CC)C(=O)N[C@@H](C)C(=O)N[C@@H](Cc1c[nH]c2ccccc12)C(=O)N[C@@H](CC(C)C)C(=O)N[C@H](C(=O)N[C@@H](Cc1ccc(O)cc1)C(=O)N[C@@H](Cc1c[nH]cn1)C(=O)N[C@@H](CCCCN)C(=O)N[C@H](C(=O)N[C@H](C(=O)N[C@@H](CC(=O)O)C(=O)O)[C@@H](C)O)[C@@H](C)CC)[C@@H](C)CC
EC50 GLP-1 (nM), cAMP AlphaScreen [1]: 0.45 nM
EC50 GLP-2 (nM), cAMP AlphaScreen [2]: 1.1 nM

B6: Compound 26 (peptide)
peptide: H-H[Aib]EGSFTSELATILDK([γGlu-C18 diacid])QAARDFIAWLIHHKITD-OH
SMILES: CC[C@H](C)[C@H](NC(=O)[C@H](Cc1ccccc1)NC(=O)[C@H](CC(=O)O)NC(=O)[C@H](CCCNC(=N)N)NC(=O)[C@H](C)NC(=O)[C@H](C)NC(=O)[C@H](CCC(N)=O)NC(=O)[C@H](CCCCNC(=O)CC[C@H](NC(=O)CCCCCCCCCCCCCCCCC(=O)O)C(=O)O)NC(=O)[C@H](CC(=O)O)NC(=O)[C@H](CC(C)C)NC(=O)[C@@H](NC(=O)[C@@H](NC(=O)[C@H](C)NC(=O)[C@H](CC(C)C)NC(=O)[C@H](CCC(=O)O)NC(=O)[C@H](CO)NC(=O)[C@@H](NC(=O)[C@H](Cc1ccccc1)NC(=O)[C@H](CO)NC(=O)CNC(=O)[C@H](CCC(=O)O)NC(=O)C(C)(C)NC(=O)[C@@H](N)Cc1c[nH]cn1)[C@@H](C)O)[C@@H](C)O)[C@@H](C)CC)C(=O)N[C@@H](C)C(=O)N[C@@H](Cc1c[nH]c2ccccc12)C(=O)N[C@@H](CC(C)C)C(=O)N[C@H](C(=O)N[C@@H](Cc1c[nH]cn1)C(=O)N[C@@H](Cc1c[nH]cn1)C(=O)N[C@@H](CCCCN)C(=O)N[C@H](C(=O)N[C@H](C(=O)N[C@@H](CC(=O)O)C(=O)O)[C@@H](C)O)[C@@H](C)CC)[C@@H](C)CC
EC50 GLP-1 (nM), cAMP AlphaScreen [1]: 0.29 nM
EC50 GLP-2 (nM), cAMP AlphaScreen [2]: 0.59 nM

The next lines start with the values.

EC50 GLP-1 (nM), cAMP AlphaScreen [1]: 0.27 nM
EC50 GLP-2 (nM), cAMP AlphaScreen [2]: 0.24 nM
B1: Compound 31 (peptide)
peptide: H-H[Aib]EGSFTSELATILDK([γGlu-C18 diacid])QAARDFIAWLISHKITD-OH
SMILES: CC[C@H](C)[C@H](NC(=O)[C@H](Cc1ccccc1)NC(=O)[C@H](CC(=O)O)NC(=O)[C@H](CCCNC(=N)N)NC(=O)[C@H](C)NC(=O)[C@H](C)NC(=O)[C@H](CCC(N)=O)NC(=O)[C@H](CCCCNC(=O)CC[C@H](NC(=O)CCCCCCCCCCCCCCCCC(=O)O)C(=O)O)NC(=O)[C@H](CC(=O)O)NC(=O)[C@H](CC(C)C)NC(=O)[C@@H](NC(=O)[C@@H](NC(=O)[C@H](C)NC(=O)[C@H](CC(C)C)NC(=O)[C@H](CCC(=O)O)NC(=O)[C@H](CO)NC(=O)[C@@H](NC(=O)[C@H](Cc1ccccc1)NC(=O)[C@H](CO)NC(=O)CNC(=O)[C@H](CCC(=O)O)NC(=O)C(C)(C)NC(=O)[C@@H](N)Cc1c[nH]cn1)[C@@H](C)O)[C@@H](C)O)[C@@H](C)CC)C(=O)N[C@@H](C)C(=O)N[C@@H](Cc1c[nH]c2ccccc12)C(=O)N[C@@H](CC(C)C)C(=O)N[C@H](C(=O)N[C@@H](CO)C(=O)N[C@@H](Cc1c[nH]cn1)C(=O)N[C@@H](CCCCN)C(=O)N[C@H](C(=O)N[C@H](C(=O)N[C@@H](CC(=O)O)C(=O)O)[C@@H](C)O)[C@@H](C)CC)[C@@H](C)CC

EC50 GLP-1 (nM), cAMP AlphaScreen [1]: 0.38 nM
EC50 GLP-2 (nM), cAMP AlphaScreen [2]: 0.46 nM
B2: Compound 32 (peptide)
peptide: H-H[Aib]EGSFTSELATILDK([βAla-Palmitoyl])QAARDFIAWLQQHKITD-OH
SMILES: CCCCCCCCCCCCCCCC(=O)NCCC(=O)NCCCC[C@H](NC(=O)[C@H](CC(=O)O)NC(=O)[C@H](CC(C)C)NC(=O)[C@@H](NC(=O)[C@@H](NC(=O)[C@H](C)NC(=O)[C@H](CC(C)C)NC(=O)[C@H](CCC(=O)O)NC(=O)[C@H](CO)NC(=O)[C@@H](NC(=O)[C@H](Cc1ccccc1)NC(=O)[C@H](CO)NC(=O)CNC(=O)[C@H](CCC(=O)O)NC(=O)C(C)(C)NC(=O)[C@@H](N)Cc1c[nH]cn1)[C@@H](C)O)[C@@H](C)O)[C@@H](C)CC)C(=O)N[C@@H](CCC(N)=O)C(=O)N[C@@H](C)C(=O)N[C@@H](C)C(=O)N[C@@H](CCCNC(=N)N)C(=O)N[C@@H](CC(=O)O)C(=O)N[C@@H](Cc1ccccc1)C(=O)N[C@H](C(=O)N[C@@H](C)C(=O)N[C@@H](Cc1c[nH]c2ccccc12)C(=O)N[C@@H](CC(C)C)C(=O)N[C@@H](CCC(N)=O)C(=O)N[C@@H](CCC(N)=O)C(=O)N[C@@H](Cc1c[nH]cn1)C(=O)N[C@@H](CCCCN)C(=O)N[C@H](C(=O)N[C@H](C(=O)N[C@@H](CC(=O)O)C(=O)O)[C@@H](C)O)[C@@H](C)CC)[C@@H](C)CC

EC50 GLP-1 (nM), cAMP AlphaScreen [1]: 0.31 nM
EC50 GLP-2 (nM), cAMP AlphaScreen [2]: 0.38 nM
B3: Compound 30 (peptide)
peptide: H-H[Aib]EGSFTSELATILDK([γGlu-C18 diacid])QAARDFIAWLIRHKITD-OH
SMILES: CC[C@H](C)[C@H](NC(=O)[C@H](Cc1ccccc1)NC(=O)[C@H](CC(=O)O)NC(=O)[C@H](CCCNC(=N)N)NC(=O)[C@H](C)NC(=O)[C@H](C)NC(=O)[C@H](CCC(N)=O)NC(=O)[C@H](CCCCNC(=O)CC[C@H](NC(=O)CCCCCCCCCCCCCCCCC(=O)O)C(=O)O)NC(=O)[C@H](CC(=O)O)NC(=O)[C@H](CC(C)C)NC(=O)[C@@H](NC(=O)[C@@H](NC(=O)[C@H](C)NC(=O)[C@H](CC(C)C)NC(=O)[C@H](CCC(=O)O)NC(=O)[C@H](CO)NC(=O)[C@@H](NC(=O)[C@H](Cc1ccccc1)NC(=O)[C@H](CO)NC(=O)CNC(=O)[C@H](CCC(=O)O)NC(=O)C(C)(C)NC(=O)[C@@H](N)Cc1c[nH]cn1)[C@@H](C)O)[C@@H](C)O)[C@@H](C)CC)C(=O)N[C@@H](C)C(=O)N[C@@H](Cc1c[nH]c2ccccc12)C(=O)N[C@@H](CC(C)C)C(=O)N[C@H](C(=O)N[C@@H](CCCNC(=N)N)C(=O)N[C@@H](Cc1c[nH]cn1)C(=O)N[C@@H](CCCCN)C(=O)N[C@H](C(=O)N[C@H](C(=O)N[C@@H](CC(=O)O)C(=O)O)[C@@H](C)O)[C@@H](C)CC)[C@@H](C)CC

EC50 GLP-1 (nM), cAMP AlphaScreen [1]: 0.31 nM
EC50 GLP-2 (nM), cAMP AlphaScreen [2]: 0.29 nM
B7: Compound 29 (peptide)
peptide: H-H[Aib]EGSFTSELATILDK([γGlu-C18 diacid])QAARDFIAWLIKHKITD-OH
SMILES: CC[C@H](C)[C@H](NC(=O)[C@H](Cc1ccccc1)NC(=O)[C@H](CC(=O)O)NC(=O)[C@H](CCCNC(=N)N)NC(=O)[C@H](C)NC(=O)[C@H](C)NC(=O)[C@H](CCC(N)=O)NC(=O)[C@H](CCCCNC(=O)CC[C@H](NC(=O)CCCCCCCCCCCCCCCCC(=O)O)C(=O)O)NC(=O)[C@H](CC(=O)O)NC(=O)[C@H](CC(C)C)NC(=O)[C@@H](NC(=O)[C@@H](NC(=O)[C@H](C)NC(=O)[C@H](CC(C)C)NC(=O)[C@H](CCC(=O)O)NC(=O)[C@H](CO)NC(=O)[C@@H](NC(=O)[C@H](Cc1ccccc1)NC(=O)[C@H](CO)NC(=O)CNC(=O)[C@H](CCC(=O)O)NC(=O)C(C)(C)NC(=O)[C@@H](N)Cc1c[nH]cn1)[C@@H](C)O)[C@@H](C)O)[C@@H](C)CC)C(=O)N[C@@H](C)C(=O)N[C@@H](Cc1c[nH]c2ccccc12)C(=O)N[C@@H](CC(C)C)C(=O)N[C@H](C(=O)N[C@@H](CCCCN)C(=O)N[C@@H](Cc1c[nH]cn1)C(=O)N[C@@H](CCCCN)C(=O)N[C@H](C(=O)N[C@H](C(=O)N[C@@H](CC(=O)O)C(=O)O)[C@@H](C)O)[C@@H](C)CC)[C@@H](C)CC
